Reference: paper PMC5716276 (The Journal of Cell Biology, 2017)

Target: T1, Strep lyspersin (subunit of recombinant BORCΔBLOC-1) (UniProt Q96GS4 1-357)
T1 sequence: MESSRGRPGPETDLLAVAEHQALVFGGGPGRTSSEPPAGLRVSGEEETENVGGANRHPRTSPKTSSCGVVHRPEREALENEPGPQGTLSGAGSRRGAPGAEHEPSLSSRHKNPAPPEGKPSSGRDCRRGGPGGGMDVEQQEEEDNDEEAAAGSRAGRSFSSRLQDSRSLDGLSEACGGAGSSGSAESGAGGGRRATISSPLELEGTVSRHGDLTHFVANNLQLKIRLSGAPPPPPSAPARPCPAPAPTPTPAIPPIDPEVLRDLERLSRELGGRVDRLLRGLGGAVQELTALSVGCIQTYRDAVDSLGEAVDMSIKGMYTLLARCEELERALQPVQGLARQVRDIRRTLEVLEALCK
Experiment: cross-linking

binding result: binds
B1: KxDL1 (subunit of recombinant BORCΔBLOC-1) (natural protein)
chain: MDLPDSASRVFCGRILSMVNTDDVNAIILAQKNMLDRFEKTNEMLLNFNNLSSARLQQMSERFLHHTRTLVEMKRDLDSIFRRIRTLKGKLARQHPEAFSHIPEASFLEEEDEDPIPPSTTTTIATSEQSTGSCDTSPDTVSPSLSPGFEDLSHVQPGSPAINGRSQTDDEEMTGE
